Source: US20200093883A1 (XIGEN INFLAMMATION, published 2020)
Square brackets hold non-standard residues; d marks the D form. Ends that are not written are not given here.

Target: c-Jun N-terminal kinase (JNK) in primary mouse cortical neurons (mouse)
Assay: cell-based or functional assay

B1: JNK inhibitor according to SEQ ID NO: 172 ("XG-104") (peptide)
peptide: [dR]KKR[dR]QRR[dR]RP[dK]RP[dA]TLNL[dF]-NH2
modifications: N-terminus assumed
SMILES: CC(C)C[C@H](NC(=O)[C@H](CC(N)=O)NC(=O)[C@H](CC(C)C)NC(=O)[C@@H](NC(=O)[C@@H](C)NC(=O)[C@@H]1CCCN1C(=O)[C@H](CCCNC(=N)N)NC(=O)[C@@H](CCCCN)NC(=O)[C@@H]1CCCN1C(=O)[C@H](CCCNC(=N)N)NC(=O)[C@@H](CCCNC(=N)N)NC(=O)[C@H](CCCNC(=N)N)NC(=O)[C@H](CCCNC(=N)N)NC(=O)[C@H](CCC(N)=O)NC(=O)[C@@H](CCCNC(=N)N)NC(=O)[C@H](CCCNC(=N)N)NC(=O)[C@H](CCCCN)NC(=O)[C@H](CCCCN)NC(=O)[C@H](N)CCCNC(=N)N)[C@@H](C)O)C(=O)N[C@H](Cc1ccccc1)C(N)=O
Question: How did the “JNK activity (ratio pJNK/JNK, immunoblot), neurons exposed to 2 µM Aβ42, pre-treatment with 5 µM XG-104: decrease” value turn out when B1 was run?
Answer: 29.2%

Question: What about the “JNK activity (ratio pJNK/JNK, immunoblot), neurons exposed to 2 µM Aβ42, pre-treatment with 10 µM XG-104: decrease” value of the same binder?
Answer: 60%

Question: And the “JNK activity (ratio pJNK/JNK, immunoblot), neurons exposed to 25 µM Aβ42, pre-treatment with 5 µM XG-104: decrease” value?
Answer: 17.5%

Question: And the “JNK activity (ratio pJNK/JNK, immunoblot), neurons exposed to 25 µM Aβ42, pre-treatment with 10 µM XG-104: decrease” value?
Answer: 59.6%
